Experimental data from patent US20260102461A1 (AIKIUM, published 2026).
Positions count from the first letter of the chain named. Like-named read-outs stand apart in the source and are kept apart here. Each block holds one binder with its values, some of them ahead of it.

Assays:
[1] = biological target: T1, KAAG1 disordered region peptide, PGAAAAHLPRWPPPQLAASRREA (biotin (position not given)); assay: modified sandwich ELISA (scaffold coated, biotinylated peptide, streptavidin-HRP fluorescence)
T1 peptide: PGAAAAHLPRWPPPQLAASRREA

[2] = biological target: T2, CD74 disordered region peptide (CLIP), PPKPVSKMRMATPLLMQALPMGALP (biotin (position not given)); assay: modified sandwich ELISA, fluorescence grade (key: >400000, Strong binding)
T2 peptide: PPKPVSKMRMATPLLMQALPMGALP

[3] = biological target: T3, CYSLTR2 N-terminal disordered region, MERKFMSLQPSISVSEMEPNGTFSNNNSRNCTIENFKREFFP (biotin (position not given)); assay: modified sandwich ELISA, fluorescence grade (key: 50000 < x < 100000, Weak binding)
T3 construct: also called CysLT2; CysLT2r
T3 peptide: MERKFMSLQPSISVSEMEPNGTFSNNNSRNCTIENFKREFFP

[4] = biological target: T3, CYSLTR2 N-terminal disordered region, …; assay: modified sandwich ELISA (scaffold coated, biotinylated peptide, streptavidin-HRP fluorescence)
[5] = biological target: T1, KAAG1 disordered region peptide, …; assay: modified sandwich ELISA, fluorescence grade (key: 50000 < x < 100000, Weak binding)
[6] = biological target: T4, Urotensin-2 receptor (UR-II-R) disordered region, MALTPESPSSFPGLAATGSSVPEPPGGPNATLNSSWASPTEPSSLEDLVATGTI (biotin (position not given)); assay: modified sandwich ELISA (scaffold coated, biotinylated peptide, streptavidin-HRP fluorescence)
T4 construct: also called Urotensin II R; GPCR2 (Urotensin II)
T4 peptide: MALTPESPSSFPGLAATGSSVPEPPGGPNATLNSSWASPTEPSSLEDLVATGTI

[7] = biological target: T1, KAAG1 disordered region peptide, …; assay: as above
[8] = biological target: T3, CYSLTR2 N-terminal disordered region, …; assay: ELISA fluorescence at 10,000 nM peptide divided by the no-scaffold control; the control bar is marked 1x
Description: (§1) Binder proteins were coated on the surface of a high binding capacity 96 well plate by incubating 100 μL of protein at […] in a coating solution (10 mM Tris pH 8.8, 50 mM NaCl), overnight at 4 C. The next morning, the coating solution was aspirated out and wells were washed once with 300 μL ELISA wash buffer (lx PBS, 0.05% Tween-20) and solution was aspirated out. The wells were blocked with 200 μL of a blocking buffer (1×PBS, 0.05% Tween-20, 3% BSA) at room temperature for 1 hour. After one hour, the blocking solution was aspirated out and 100 μL of biotinylated polypeptide in a binding buffer (1×PBS, 0.05% Tween-20, 0.5% BSA) at various concentrations was added to the appropriate well and incubated for 20 minutes. Peptide solution was aspirated out after 20 minutes and wells were washed 5 times with 300 μL of ELISA wash buffer. To detect the biotinylated peptide, 100 μL of streptavidin-HRP (50 ng/mL) was added to each well and incubated for 1 hour. The wells were subsequently washed 5 times with 300 μL of ELISA wash buffer. 100 μL of QuantaBlu Fluorogenic Peroxidase substrate solution was added to each well, incubated for 30 minutes and reaction stopped by adding 100 μL of stop solution. Fluorescent signal from each well was measured using a Biotek Cytation5 plate reader by exciting the fluorophore at […] and measuring emission at 420 nm. Fluorescent signals were plotted as a function of polypeptide concentration.

[9] = biological target: T2, CD74 disordered region peptide (CLIP), …; assay: ELISA, scaffold coated on the plate, biotinylated peptide titrated, streptavidin-HRP fluorescence
Description: as §1

[10] = biological target: T1, KAAG1 disordered region peptide, …; assay: as above
Description: as §1

[11] = biological target: 25 amino acid epitope of CLIP (CD74); assay: BLI (Octet), biotinylated peptide on streptavidin tip, scaffold in solution
[12] = biological target: T5, CYSLTR2 Epitope SISVSEMEPNGTFSNNNSRNC (N-terminally biotinylated); assay: ELISA, scaffold coated on the plate, biotinylated peptide titrated, streptavidin-HRP fluorescence
T5 peptide: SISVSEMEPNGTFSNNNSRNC

[13] = biological target: T4, Urotensin-2 receptor (UR-II-R) …; assay: as above
Description: as §1, with “Fluorescent signals were plotted as a function of polypeptide concentration.” left out

MERKFMSLQPSISVSEMEPNG = biological target: T6, MERKFMSLQPSISVSEMEPNG (N-terminal biotin); assay: as above
T6 construct: First of three overlapping 21-mers of the CYSLTR2 N-terminal disordered region
T6 peptide: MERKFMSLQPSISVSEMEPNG
Description: as §1

[14] = biological target: T5, CYSLTR2 Epitope SISVSEMEPNGTFSNNNSRNC; assay: as above
Description: as §1

[15] = biological target: T3, CYSLTR2 N-terminal disordered region, …; assay: modified sandwich ELISA (FIGS. 30A and 30B)
Description: as §1, with “Fluorescent signals were plotted as a function of polypeptide concentration.” left out

B1: S078 (designed binder)
chain: GDTRPRFLWQLKFECHFFNGTERVRLLERCIYNQEESVRFDSDVGEYRAVTELGRPDAEYWNSQKDLLEQRRAAVDTYCRHNYGVGESFTVQRRSGGGIKEEHVIIQAEFYLNPDQSGEFMFDFDGDEIFHVDMAKKETVWRLEEFGRFASFEAQGALANIAVDKANLEIMTKRSNYTGGSHHHHHHLE
binding result [1]: no binding (tested: <5000 (fluorescence signal, key))
fluorescent signal [2]: > 400000 fluorescentsignal
fluorescent signal [3]: 50000 to 100000 fluorescentsignal

B2: S084 (designed binder)
chain: IKEEHVIQQSEYYTNPDQSGEFQFDFDGDEIFHVDMAKKETVWRLEEFGRFASFEAQGALANIAVDKANLEIMTKRSNYTGDTRPRFNWQLKFECHFFNGTERVRLLERCNYNQEESVRFDSDVGEYRAVTELGRPDAEYWNSQKDLLEQRRAAVDTYCRHNYGVGESFTVQRRGGSHHHHHHLE
binding result [4]: no binding (tested: <5000 (fluorescence signal, key))
binding result [1]: no binding (tested: <5000 (fluorescence signal, key))
fluorescent signal [2]: > 400000 fluorescentsignal

B5: S098 (designed binder)
chain: PENYLFQGRQECNGTQFLERYIYNREEFVRFDEFRAVGRPDEEYWNSQKDILEEERAVPDRMCRHNYELGGPMTLQRRVQPRVNIKADHVSTYAAFVQRPFMFEFDEDEMFYVDLHLEEFGQAFSFEAQGGLANIAILNNNLNTRSNHTQATNDPPHHHHHHLE
binding result [6]: no binding (tested: <5000 (fluorescence signal, key))
binding result [7]: no binding (tested: <5000 (fluorescence signal, key))

B6: S005 (designed binder)
chain: MIKEEHVIIQAEFYLNPDQSGEFMFDFDGDEIFHVDMAKKETVWRLEEFGRFASFEAQGALANIAVDKANLEIMTKRSNYTPMGDTRPRFLWQLKFECHFFNGTERVRLLERCIYNQEESVRFDSDVGEYRAVTELGRPDAEYWNSQKDLLEQRRAAVDTYCRHNYGVGESFTVQGGSHHHHHHLE
notes: Engineered scaffold derived from MHC II; derived from S007 by removing the immunoglobulin unit; also called v1.1; scaffold v1.1
Relative Binding [8]: 18.5 x
Relative Binding (Fold Change) [8]: 18.5 x
EC50 (read off the curve) [9]: ~300 nM
binding result [10]: binds
Kd [11]: 840 nM
binding result [12]: binds
binding result [6]: no binding (tested: <5000 (fluorescence signal, key))

The remaining lines, values ahead:

fluorescent signal [2]: > 400000 fluorescentsignal
fluorescent signal [5]: 50000 to 100000 fluorescentsignal
B3: S055 (designed binder)
chain: GSHSMRYNYTSVSRPGRGEPRFLSEGHVDDTQFVRFDSDAASPREEPRAPWIEQEGPEYWDRNTQIYKAQAQTDRESLRNLRGYYNQSEAGSHTLQSIYGCDVGPDGRLLRGHDQYYYDGKDYISLNEDLRSWTAADTAAQITQRKWEAAREAEQRRAYLEGECVEWLRRYLENGKDKLERADGGSHHHHHHLE

fluorescent signal [2]: > 400000 fluorescentsignal
fluorescent signal [5]: 50000 to 100000 fluorescentsignal
B4: S056 (designed binder)
chain: B3 chain with D30G, T31Q, Q32P, S92L, T94S, Q96N, G100V, Q115H, K121E, D122L

Relative Binding [8]: 37.2 x
Relative Binding (Fold Change) [8]: 37.2 x
binding result [13]: binds
EC50 (read off the curve) [9]: ~500 nM
binding result (MERKFMSLQPSISVSEMEPNG): no binding (tested: 10000 nM)
binding result [14]: binds
binding result [10]: binds
fold higher affinity compared to a non-specific protein binder [15]: > 65 fold
B7: S090 (designed binder)
chain: IKEEHSIRQNEMYLNPDQSGLFEFHLDGQPIFRVDMQKKRTKWQLEEFGRFASFEAQGALANIAVDKANLEIMTKRSNQSEAGSHSWQLIFVCEFHEGTESVRLSERCYYNQELSVSFNSDVGEYRAVTELGRPDAEYWNSQKDLLEQRRAAVDTYCRHNYGVGESFTVQRRGGSHHHHHHLE
notes: Rationally designed from v1.1 (S005); By SEC it is a mixture of monomers, dimers and multimers, at least 50% monomer; also called v1.2; scaffold v1.2
